Consider six molecules from patent US20140212427A1 (University of Pennsylvania, published 2014).

The target of one assay is human properdin (human, UniProt P27918 28-469). Description: cell-based or functional assay.
Assay [1] concerns the target T1, human properdin deletion mutant dTSR5+6 (human, UniProt P27918 28-313).
T1 construct: Human properdin with TSR5 and TSR6 deleted; CHO cell lysate; also called TSR0-4; TSR5+6 deletion mutant
Description: ELISA with CHO cell lysates of properdin deletion mutants (FIG. 6). The protocol: (§1) However, because dTSR5 has undergone proteolytic degradation leading to possible TSR6 removal (FIG. 5), it is likely that the epitope for mAb 25 is located in TSR6. HuP refers to full length human properdin transfection which is used as a positive control. Con refers to untransfected CHO cell lysate which is used as a negative control for lack of binding. All mutant proteins contained a 6×His tag at the C-terminus.
(§2) (see FIG. 6). ELISA plates were coated with 50 μl of 2 μg/ml of the concerned mAb overnight at 4° C. The plates were washed 3× with PBS-T and then 25 μg (in 50 μl PBS containing 1% BSA) CHO cell lysate proteins were added to the wells and the plates were incubated for 1 hour at room temperature. The plates were washed 3× with PBS-T and then captured protein was detected by biotinylated goat anti-human properdin antibody and HRP-avidin system.
(ELISA stands for enzyme-linked immunosorbent assay.)

For assay [2], the target named is T2, human properdin mutant TSR0-4+½ TSR5 (human, UniProt P27918 28-345).
T2 construct: Expressed in CHO cells, tested as lysate; expression confirmed by Western blot
T2 sequence (P27918 other isoform, or with tags, fused parts or gaps mutant limits assumed): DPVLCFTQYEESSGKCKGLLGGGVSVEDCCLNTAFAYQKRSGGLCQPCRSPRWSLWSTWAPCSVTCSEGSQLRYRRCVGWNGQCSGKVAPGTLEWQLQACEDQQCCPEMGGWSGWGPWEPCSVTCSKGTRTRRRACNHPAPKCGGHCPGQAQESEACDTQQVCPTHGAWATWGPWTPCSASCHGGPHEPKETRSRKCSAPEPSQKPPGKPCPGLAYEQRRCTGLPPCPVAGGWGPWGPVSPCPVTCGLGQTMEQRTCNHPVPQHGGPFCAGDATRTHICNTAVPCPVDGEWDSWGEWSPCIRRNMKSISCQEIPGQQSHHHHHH
The experiment in a line: sandwich ELISA with CHO cell lysates (FIG. 7). The protocol:
as §2
Three human properdin mutants comprising TSR0-4+¼ TSR5, TSR0-4+½ TSR5 or TSR0-4+¾ TSR5 were generated by conventional PCR. They were cloned into pCAGGS and expressed in CHO cells as described in Example 5. Protein expression was confirmed by Western analysis using goat anti-human properdin antibody. The blot was stripped and reprobed with a mouse anti-His tag antibody (Qiagen) to confirm that the C-terminal His Tag is present (no C-terminal proteolysis).

Assay [3] has as its target T3, human properdin mutant TSR0-5+¾ TSR6 (human, UniProt P27918 28-446).
T3 construct: Expressed in CHO cells, tested as lysate; expression confirmed by Western blot
Description: sandwich ELISA with CHO cell lysates (FIG. 8A). The protocol:
as §2
Three human properdin mutants comprising TSR0-5+¼ TSR6, TSR0-5+½ TSR6 or TSR0-5+¾ TSR6 were generated by conventional PCR. They were cloned into pCAGGS and expressed in CHO cells as described in Example 5. Protein expression was confirmed by Western analysis using goat anti-human properdin antibody. The blot was stripped and reprobed with a mouse anti-His tag antibody (Qiagen) to confirm that the C-terminal His Tag is present (no C-terminal proteolysis). […] These are cysteine 62 (C62) and cysteine 78 (C78) of TSR6.

The target of assay [4] is T4, human properdin deletion mutant dTSR6 (human, UniProt P27918 28-377).
T4 construct: CHO cell lysate; also called TSR0-5
T4 sequence (P27918 other isoform, or with tags, fused parts or gaps mutant limits assumed): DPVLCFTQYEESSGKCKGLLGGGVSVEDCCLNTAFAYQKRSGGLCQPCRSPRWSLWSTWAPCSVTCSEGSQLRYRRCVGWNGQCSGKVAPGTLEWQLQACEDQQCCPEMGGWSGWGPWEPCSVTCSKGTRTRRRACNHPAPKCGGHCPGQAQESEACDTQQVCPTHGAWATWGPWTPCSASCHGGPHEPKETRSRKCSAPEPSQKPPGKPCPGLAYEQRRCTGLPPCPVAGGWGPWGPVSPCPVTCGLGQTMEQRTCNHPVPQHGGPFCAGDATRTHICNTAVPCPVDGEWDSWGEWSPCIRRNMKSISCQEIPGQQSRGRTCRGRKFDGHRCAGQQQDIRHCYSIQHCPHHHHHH
Description: ELISA with CHO cell lysates of properdin deletion mutants (FIG. 6). The protocol: as §1, §2

Assay [5] deals with T5, full-length human properdin with the double mutations C62A and C78A (TSR6) (human, UniProt P27918 28-469).
T5 construct: Whether this mutant carries a 6×His tag is not clear; Homogenate of transfected CHO cells; also called C62A and C78A double mutant
T5 sequence (P27918 28-469 C439A/C455A limits assumed): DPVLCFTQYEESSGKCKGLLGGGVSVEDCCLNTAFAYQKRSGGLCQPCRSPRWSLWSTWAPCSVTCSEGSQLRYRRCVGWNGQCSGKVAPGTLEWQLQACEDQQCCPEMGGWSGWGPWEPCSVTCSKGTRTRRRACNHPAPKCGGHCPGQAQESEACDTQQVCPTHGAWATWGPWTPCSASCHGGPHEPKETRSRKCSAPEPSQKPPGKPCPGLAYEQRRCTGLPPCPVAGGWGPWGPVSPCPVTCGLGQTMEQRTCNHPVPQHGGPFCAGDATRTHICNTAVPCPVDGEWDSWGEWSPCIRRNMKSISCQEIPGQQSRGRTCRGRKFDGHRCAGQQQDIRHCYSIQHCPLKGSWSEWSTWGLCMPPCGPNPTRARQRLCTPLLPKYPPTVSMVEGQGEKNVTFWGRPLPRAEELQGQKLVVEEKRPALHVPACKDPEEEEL
The experiment in a line: ELISA with homogenates of transfected CHO cells (FIG. 8B).

Where a chain is given by its changes, count along the chain named.

human properdin, sequence (P27918 28-469): as the sequence (P27918 28-469 C439A/C455A limits assumed) above, with A412C, A428C counted along it
T1 sequence (P27918 other isoform, or with tags, fused parts or gaps mutant limits assumed): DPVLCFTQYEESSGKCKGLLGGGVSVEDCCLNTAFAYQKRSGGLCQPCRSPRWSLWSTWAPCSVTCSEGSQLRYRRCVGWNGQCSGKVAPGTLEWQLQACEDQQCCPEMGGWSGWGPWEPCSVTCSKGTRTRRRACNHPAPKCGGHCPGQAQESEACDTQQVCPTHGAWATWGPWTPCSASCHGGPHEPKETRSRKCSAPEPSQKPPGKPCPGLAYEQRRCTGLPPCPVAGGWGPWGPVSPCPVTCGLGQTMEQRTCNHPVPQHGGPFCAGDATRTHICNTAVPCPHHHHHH
T3 sequence (P27918 other isoform, or with tags, fused parts or gaps mutant limits assumed): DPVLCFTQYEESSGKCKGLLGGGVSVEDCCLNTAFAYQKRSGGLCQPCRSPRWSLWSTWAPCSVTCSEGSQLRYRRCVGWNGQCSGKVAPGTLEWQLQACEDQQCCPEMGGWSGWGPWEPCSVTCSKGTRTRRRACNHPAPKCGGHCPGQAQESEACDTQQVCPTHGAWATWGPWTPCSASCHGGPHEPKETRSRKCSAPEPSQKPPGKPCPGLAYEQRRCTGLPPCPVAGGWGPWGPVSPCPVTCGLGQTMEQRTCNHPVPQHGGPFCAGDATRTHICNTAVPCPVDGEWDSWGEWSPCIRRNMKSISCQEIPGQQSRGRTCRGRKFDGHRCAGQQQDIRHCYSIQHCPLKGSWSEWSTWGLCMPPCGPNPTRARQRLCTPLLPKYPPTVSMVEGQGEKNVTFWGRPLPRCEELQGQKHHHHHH

B1: humanized 19.1 mAb with heavy chain variable region humanized 19.1 VH-4-59-01 (antibody, human IgG4 S228P, kappa, V domains shown)
VH: QVQLQESGPGLVKPSETLSLTCTVSGFSLTTYGVHWIRQPPGKGLEWIGVIWSGGDTDYNASFISRVTISVDTSKNQFSLKLSSVTAADTAVYYCARNKDYYTNYDFTMDYWGQGTTVTVSS
VL: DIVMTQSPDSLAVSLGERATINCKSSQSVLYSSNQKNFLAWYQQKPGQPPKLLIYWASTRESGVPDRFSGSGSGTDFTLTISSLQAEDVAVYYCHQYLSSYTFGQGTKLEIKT
For B1, in the assay with human properdin, the “acidified autologous serum lysis of PNH patient RBCs (Ham's test)” value (“acidified autologous serum lysis” for short) stood at 20 µg/ml and the “concentration sufficient to inhibit LPS-induced human AP complement activation in 50% NHS (C3 deposition)” value came to 10 µg/mL.

B2: humanized 19.1 mAb with heavy chain variable region humanized 19.1 VH-3-66-04 (antibody, human IgG4 S228P, kappa, V domains shown)
VH: EVQLVESGGGLVQPGGSLRLSCAASGFSLTTYGVHWVRQAPGKGLEWVSVIWSGGDTDYNASFISRFTISRDNSKNTLYLQMNSLRAEDTAVYYCARNKDYYTNYDFTMDYWGQGTTVTVSS
VL: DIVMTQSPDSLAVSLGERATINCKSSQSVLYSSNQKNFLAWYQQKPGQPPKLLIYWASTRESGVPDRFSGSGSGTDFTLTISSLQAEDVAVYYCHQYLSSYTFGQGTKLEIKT
With B2, the “concentration sufficient to inhibit LPS-induced human AP complement activation in 50% NHS (C3 deposition)” value in the assay with human properdin stood at 10 µg/mL.

B3: mAb 19.1 (antibody, V domains shown)
VH: QVQLKQSGPGLVQPSQSLSISCTVSGFSLTTYGVHWVRQSPGKGLEWLGVIWSGGDTDYNASFISRLRINKDTSKSQVFFKMNSLQADDTAYYCARNKDYYTNYDFTMDYWGQGTSVTVSS
VL: NIMMTQSPSSLAVSAGEKVTMSCKSSQSVLYSSNQKNFLAWYQQKPGQSPKLLIYWASTRESGVPDRFTGSGSGTDFILTINSVQVEDQAVYYCHQYLSSYTFGGGTKLEIK
notes: Mouse hybridoma monoclonal antibody from properdin knockout mice immunised with human properdin; kappa light chain
Consider B3, for which, in the assay with human properdin, the “LPS-induced AP complement activation in 50% normal human serum (C3 deposition, OD450)” value was 5 µg/mL; the “acidified autologous serum lysis” value was ≥ 8 µg/ml; the “concentration sufficient to inhibit LPS-induced human AP complement activation in 50% NHS (C3 deposition)” value came out at 5 µg/mL; the “lysis of human RBCs by 50% human serum with fH 19-20 and anti-DAF mAb” value (shortened to “lysis of human RBCs by 50% human serum”) is 5 µg/mL. For the same molecule, the binding result in assay [1] is on record as “no binding”. For the same molecule, the binding result in assay [2] is “no binding”.

B4: mAb 22.1 (antibody, V domains shown)
VH: QVQLKQSGPGLVQPSQSLSITCTVSGFSLTSYGVHWVRQSPGKGLEWLGVIWSGGSTDYNAAFISRLSISKDTSKSQVFFKMNSLQPDDTAIYYCARNKDFYSNYDYTMDYWGQGTSVTVSS
VL: B3 VL with S10F, M21L, I78T, N82S, V86A, Q89L
On to B4, for which, in the assay with human properdin, the “LPS-induced AP complement activation in 50% normal human serum (C3 deposition, OD450)” value was determined as 5 µg/mL; the “lysis of human RBCs by 50% human serum” value worked out at 5 µg/mL.

B5: chimeric 19.1 mAb (antibody, human IgG4 S228P, kappa, V domains shown)
VH: B3 VH
VL: NIMMTQSPSSLAVSAGEKVTMSCKSSQSVLYSSNQKNFLAWYQQKPGQSPKLLIYWASTRESGVPDRFTGSGSGTDFILTINSVQVEDQAVYYCHQYLSSYTFGGGTKLEIKT
B5: the “concentration sufficient to inhibit LPS-induced human AP complement activation in 50% NHS (C3 deposition)” value in the assay with human properdin amounted to 10 µg/mL.

B6: mAb 25 (antibody, V domains shown)
VH: QVQLLQSGAEVMKPGASVTLSCKAIGYTFIDYWIEWIKQRPGHGLEWIGEIFPGSGTINHNEKFKDKASFSAHSSSNTAYMQLSRLTSEDSAIYYCAREGLDYWGQGTTLTVSS
VL: QIVLTQSPAIMSASPGERVTMTCSASSSVSYIYWYQQKSGTSPKRWIFDTSTLASGVPTRFSGSGSGTSYSLTISSMETEDAATYYCQQWSRNPFTFGSGTKLEIK
notes: Mouse hybridoma monoclonal antibody; also called anti-properdin mAb 25
Regarding B6, in the assay with human properdin, the “LPS-induced AP complement activation in 50% normal human serum (C3 deposition, OD450)” value was determined as 5 µg/mL. Besides, the “acidified autologous serum lysis” value with human properdin is ≥ 8 µg/ml. Moreover, the “lysis of human RBCs by 50% human serum” value with human properdin is 5 µg/mL. Further, the binding result in assay [3], in assay [4], in assay [1] and in assay [5] was “no binding” throughout.
